# What was measured:
# [1] = molecular target: cardiac sodium channel NaV1.5 α subunit of human origin (adult isoform) (human) (UniProt Q14524)
# [2] = molecular target: cardiac sodium channel NaV1.5 α subunit of human origin (adult isoform) (human) (UniProt Q14524); remark: listed apart in the source
# [3] = molecular target: cardiac sodium channel NaV1.5 α subunit of human origin (adult isoform) (human) (UniProt Q14524); remark: listed apart in the source
# Chain of UniProt Q14524 (Q14524 whole entry, canonical isoform): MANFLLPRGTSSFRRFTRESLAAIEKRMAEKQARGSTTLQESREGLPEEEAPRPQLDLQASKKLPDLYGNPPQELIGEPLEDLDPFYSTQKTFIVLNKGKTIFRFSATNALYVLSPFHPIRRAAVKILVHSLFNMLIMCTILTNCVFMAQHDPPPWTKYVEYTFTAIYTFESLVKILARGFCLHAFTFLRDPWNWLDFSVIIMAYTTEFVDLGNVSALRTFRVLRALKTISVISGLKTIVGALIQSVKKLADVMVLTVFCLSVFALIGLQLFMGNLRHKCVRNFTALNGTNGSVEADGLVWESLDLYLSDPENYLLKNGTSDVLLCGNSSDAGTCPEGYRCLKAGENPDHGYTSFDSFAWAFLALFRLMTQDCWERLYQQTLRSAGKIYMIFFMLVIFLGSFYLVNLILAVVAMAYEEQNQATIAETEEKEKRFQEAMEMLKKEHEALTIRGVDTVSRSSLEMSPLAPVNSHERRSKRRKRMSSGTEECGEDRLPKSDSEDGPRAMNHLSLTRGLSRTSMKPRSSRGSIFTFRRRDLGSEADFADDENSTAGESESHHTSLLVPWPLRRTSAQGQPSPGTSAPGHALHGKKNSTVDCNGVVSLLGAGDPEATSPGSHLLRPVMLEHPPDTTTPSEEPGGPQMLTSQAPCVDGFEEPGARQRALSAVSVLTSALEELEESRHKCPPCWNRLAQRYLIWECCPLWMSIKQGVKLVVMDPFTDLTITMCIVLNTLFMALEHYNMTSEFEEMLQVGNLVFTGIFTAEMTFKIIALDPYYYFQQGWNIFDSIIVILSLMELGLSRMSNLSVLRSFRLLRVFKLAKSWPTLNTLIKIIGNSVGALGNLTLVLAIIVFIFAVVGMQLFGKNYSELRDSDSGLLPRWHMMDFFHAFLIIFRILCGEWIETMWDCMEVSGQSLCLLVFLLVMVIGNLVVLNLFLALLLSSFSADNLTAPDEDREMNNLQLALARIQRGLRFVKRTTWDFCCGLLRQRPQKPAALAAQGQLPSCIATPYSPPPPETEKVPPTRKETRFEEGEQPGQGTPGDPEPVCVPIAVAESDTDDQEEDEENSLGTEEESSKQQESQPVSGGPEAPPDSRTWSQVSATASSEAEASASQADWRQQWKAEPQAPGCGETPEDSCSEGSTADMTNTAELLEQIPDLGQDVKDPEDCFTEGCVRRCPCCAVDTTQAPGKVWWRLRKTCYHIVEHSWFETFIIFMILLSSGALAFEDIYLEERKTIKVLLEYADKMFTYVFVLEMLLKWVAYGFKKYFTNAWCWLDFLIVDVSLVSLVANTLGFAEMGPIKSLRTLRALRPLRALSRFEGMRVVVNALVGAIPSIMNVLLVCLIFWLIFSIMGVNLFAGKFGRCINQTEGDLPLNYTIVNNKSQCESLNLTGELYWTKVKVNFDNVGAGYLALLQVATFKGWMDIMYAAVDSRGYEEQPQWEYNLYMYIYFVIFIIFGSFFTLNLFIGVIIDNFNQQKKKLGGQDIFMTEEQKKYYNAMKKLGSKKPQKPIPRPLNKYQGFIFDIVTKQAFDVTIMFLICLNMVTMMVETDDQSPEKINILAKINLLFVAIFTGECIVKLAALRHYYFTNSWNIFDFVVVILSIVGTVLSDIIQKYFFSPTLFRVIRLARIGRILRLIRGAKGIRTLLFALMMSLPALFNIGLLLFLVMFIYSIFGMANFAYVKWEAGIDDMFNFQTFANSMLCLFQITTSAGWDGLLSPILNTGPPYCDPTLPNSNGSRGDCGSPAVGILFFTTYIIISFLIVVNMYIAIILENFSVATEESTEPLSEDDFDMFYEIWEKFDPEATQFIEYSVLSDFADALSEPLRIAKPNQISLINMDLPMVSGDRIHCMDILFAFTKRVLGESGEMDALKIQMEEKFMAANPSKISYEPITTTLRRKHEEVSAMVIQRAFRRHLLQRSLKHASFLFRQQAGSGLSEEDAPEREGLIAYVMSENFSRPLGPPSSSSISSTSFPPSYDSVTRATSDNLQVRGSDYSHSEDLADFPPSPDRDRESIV
substance,measurement,setting,value
AahII toxin from Androctonus australis Hector (from UniProt P01484 20-85) (natural protein),"whole-cell patch clamp on HEK293 cells expressing NaV1.5: factor by which inactivation is slowed against control, [AahII] 75, 150 and 300 nM",[1],35 fold
same,whole-cell patch clamp: inactivation time constant (tau) of NaV1.5 after washout of AahII (75 nM) with control solution,[1],5.2 ms
same,whole-cell patch clamp: tau of NaV1.5 after AahII 75 nM for 7 min followed by 75 nM AahII + 75 nM Nb10 (1:1) up to 14 min,[2],4.7 ms
same,whole-cell patch clamp: tau of NaV1.5 after AahII 75 nM for 7 min followed by 75 nM Nb10 alone until 14 min,[3],4.6
same,"whole-cell patch clamp: tau of NaV1.5 with AahII 75 nM perfused for 7 min, before Nb10 alone",[3],9.6 ms

# Source: PMC8918821
